# Source: the supplement of paper PMC9233669
# This sample holds only a part of the variants without activity.
# What was measured:
# [1] = system: biotinyl-Phe-oxazolone; experiment: self-aminoacylation, catalytic enhancement (BFO) (fold over background); higher = more active; k-Seq, kA / k0A0; sequences stand for … in GGGAAUGGAUCCACAUCUACGAAUUC…UUCACUGCAGACUUGACGAAGCUG
# Procedure, shortened: (§1)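 The uncatalyzed rate is the low-activity peak of a bimodal Gaussian fit, and catalytic enhancement is median kA divided by it. The kA values came from pseudo-first-order fits, with 1000 bootstraps, of per-sequence fraction reacted measured by streptavidin capture, triplicate qPCR and Illumina sequencing. Mutagenized RNA pools with a 21-nt variable region (0.43 μM) were reacted with each biotinyl-aminoacyl-oxazolone at 2–1250 μM in 50 μL HEPES/NaCl/KCl/MgCl2/CaCl2 buffer with 5% acetonitrile, pH 6.9–7.0, for 90 minutes at room temperature.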
# [2] = system: biotinyl-Ile-oxazolone; experiment: self-aminoacylation, catalytic enhancement (BIO) (fold over background); higher = more active; k-Seq, kA / k0A0; sequences stand for … in GGGAAUGGAUCCACAUCUACGAAUUC…UUCACUGCAGACUUGACGAAGCUG
# Procedure, shortened: as §1
# [3] = system: biotinyl-Val-oxazolone; experiment: self-aminoacylation, catalytic enhancement (BVO) (fold over background); higher = more active; k-Seq, kA / k0A0; sequences stand for … in GGGAAUGGAUCCACAUCUACGAAUUC…UUCACUGCAGACUUGACGAAGCUG
# Procedure, shortened: as §1
# [4] = system: biotinyl-Leu-oxazolone; experiment: self-aminoacylation, catalytic enhancement (BLO) (fold over background); higher = more active; k-Seq, kA / k0A0; sequences stand for … in GGGAAUGGAUCCACAUCUACGAAUUC…UUCACUGCAGACUUGACGAAGCUG
# Procedure, shortened: as §1
# [5] = system: biotinyl-Trp-oxazolone; experiment: self-aminoacylation, catalytic enhancement (BWO) (fold over background); higher = more active; k-Seq, kA / k0A0; sequences stand for … in GGGAAUGGAUCCACAUCUACGAAUUC…UUCACUGCAGACUUGACGAAGCUG
# Procedure, shortened: as §1
# [6] = system: biotinyl-Met-oxazolone; experiment: self-aminoacylation, catalytic enhancement (BMO) (fold over background); higher = more active; k-Seq, kA / k0A0; sequences stand for … in GGGAAUGGAUCCACAUCUACGAAUUC…UUCACUGCAGACUUGACGAAGCUG
# Procedure, shortened: as §1
Sequence,self-aminoacylation [1],self-aminoacylation [2],self-aminoacylation [3],self-aminoacylation [4],self-aminoacylation [5],self-aminoacylation [6]
AAGUUUGCUAAUAGUCGCAUA [Fam3.1 aminoacylation ribozyme variant],1.58,1.21,1.22,0.954,1.23,0.936
CAGUUUGCUAAUAGGCGCAAG [Fam3.1 aminoacylation ribozyme variant],0.95,1.21,1.27,1.35,0.744,1.14
AUACACCUGGGUCAUCGGGUG [Fam2.2 aminoacylation ribozyme variant],14.8,3.31,3.54,4.41,3.69,4.39
AAGUUUGCUAGUAGUCGCGAG [Fam3.1 aminoacylation ribozyme variant],3.65,1.27,1.54,1.25,2.01,1.08
AUUACCCUCGUUAUCGAGUGA [Fam2.1 aminoacylation ribozyme variant],91.9,5.66,5.63,13.9,17,13.8
CCAGUUCAAACAAUCGGUCUG [Fam1A.1 aminoacylation ribozyme variant],14.2,1.41,1.39,1.5,10.7,1.34
CCAAACUUCAAGCAAUCGGCC [Fam1B.1 aminoacylation ribozyme variant],4.84,2.38,3.04,3.45,5.38,2.21
AUUAUCCUGGUCAUCGCGUGA [Fam2.1 aminoacylation ribozyme variant],146,6.96,8.29,19.9,19.3,17.9
CCACACUUCAAGCACUCGGUG [Fam1B.1 aminoacylation ribozyme variant],22.4,2.92,3.16,4.22,3.63,3.52
ACGUUUGCUAAUAGUUGCAAG [Fam3.1 aminoacylation ribozyme variant],2.12,1.45,1.17,1.33,1.15,1.26
AAUCACCAAGGUCAUCGGGUG [Fam2.2 aminoacylation ribozyme variant],54.3,4.92,5.67,10.7,8.66,6.79
UCACAAUUCAAGCAAUCGGUC [Fam1B.1 aminoacylation ribozyme variant],1.8,1.04,0.986,0.949,1.39,0.989
CUACUCAAAACAAUCGGUCUG [Fam1A.1 aminoacylation ribozyme variant],1.27,1.02,0.968,0.676,1.23,1.11
AUUACCAUGGUCAUGGAGUGA [Fam2.1 aminoacylation ribozyme variant],24.3,3.74,3.34,5.78,7.35,5.25
CCACACAUCCAGCAAUCGGUC [Fam1B.1 aminoacylation ribozyme variant],0.873,1.2,1.08,0.983,0.847,1.05
AUUUACCUAGGUCAUCGCGUG [Fam2.2 aminoacylation ribozyme variant],82.1,5.32,5.84,13.6,9.58,9.66
CUACUUCACAGAAUCGGUCUG [Fam1A.1 aminoacylation ribozyme variant],1.11,1.03,1.02,1.1,0.917,1.05
AAGUUUGCUACUAGUCUCAAG [Fam3.1 aminoacylation ribozyme variant],1.11,0.827,0.818,0.77,0.988,0.914
ACACACUUCAAGCAAUCGUUC [Fam1B.1 aminoacylation ribozyme variant],1.43,1.02,1.23,0.787,1.21,0.825
CUACUUCAAACAAUAGGUCUC [Fam1A.1 aminoacylation ribozyme variant],1.03,0.666,0.657,0.493,0.459,0.535
AAGUUUGUUAAUCGUCGCAAG [Fam3.1 aminoacylation ribozyme variant],1.05,1.21,1.22,1.15,1.04,1.35
AAGUUUGCUAAUAGUAGCUAG [Fam3.1 aminoacylation ribozyme variant],1.05,0.958,0.988,0.639,1.14,1.28
AUAACCCUGGUAAUCGAGUGA [Fam2.1 aminoacylation ribozyme variant],42.6,3.97,3.58,8.57,9.38,7.93
AUUACGCGGGUCAUCGAGUGA [Fam2.1 aminoacylation ribozyme variant],22.7,3.23,3.31,4.86,5.54,5.54
AUUCACCUAGGUCGUCGGGUG [Fam2.2 aminoacylation ribozyme variant],9.32,1.61,1.77,2.09,1.66,1.84
AAUACCCUGAUCAUCGAGUGA [Fam2.1 aminoacylation ribozyme variant],18.6,2.79,3.21,6.22,7.59,6.32

Sequence,self-aminoacylation [1],self-aminoacylation [2],self-aminoacylation [3],self-aminoacylation [4],self-aminoacylation [5],self-aminoacylation [6]
AAGUUUGCUAAAAAUCGCAAG [Fam3.1 aminoacylation ribozyme variant],0.949,1.09,0.721,0.891,0.986,0.925
CUACACUUCAAGCAGUCGGUC [Fam1B.1 aminoacylation ribozyme variant],0.895,0.775,0.758,0.741,0.628,0.739
AUUACCCUGGUCAUCCAUUGA [Fam2.1 aminoacylation ribozyme variant],1.15,1.08,1.08,1.14,0.684,0.84
UUUACCCUGGUCAUCGAGUGU [Fam2.1 aminoacylation ribozyme variant],542,22.7,26.3,71.5,75.4,82.3
AGUACCCUUGUCAUCGAGUGA [Fam2.1 aminoacylation ribozyme variant],18.4,3.06,3.48,6.28,6.7,5.76
ACUACCCUGGUCAUCAAGUGA [Fam2.1 aminoacylation ribozyme variant],5.04,1.67,1.67,2.37,2.76,3.19
AAUACCAUGGUCAUCGAGUGA [Fam2.1 aminoacylation ribozyme variant],16.2,3.19,2.89,6.22,7.7,6.12
AUUCACCUAGGUGAUUGGGUG [Fam2.2 aminoacylation ribozyme variant],13.2,2.17,2.41,3.06,2.96,2.68
AUUACCCUGGUCAUCUAGUGU [Fam2.1 aminoacylation ribozyme variant],9.89,2.02,2.48,4.08,4.88,4.11
CCACACUUCGAGCAAUUGGUC [Fam1B.1 aminoacylation ribozyme variant],0.518,0.79,0.956,0.747,0.375,0.721
CUUACUCUGGUCAUCGAGUGA [Fam2.1 aminoacylation ribozyme variant],14.2,2.54,3.07,5.28,5.52,4.98
CAGUUUGCUAAUAGUCACAAG [Fam3.1 aminoacylation ribozyme variant],2.59,1.04,0.952,1.11,1.3,1.04
CCACUUCAAACAAUGGGUCUG [Fam1A.1 aminoacylation ribozyme variant],0.725,1.07,1.03,0.97,0.691,0.887
CUUCACCUAUGUCAUCGGGUG [Fam2.2 aminoacylation ribozyme variant],17,2.35,2.83,4.68,4.46,3.64
CUACUCCAAACAAUCGGCCUG [Fam1A.1 aminoacylation ribozyme variant],3.54,1.65,1.42,2.07,3.22,1.38
AUUACCCUUGUCAUCCAGUGA [Fam2.1 aminoacylation ribozyme variant],9.92,2.21,2.25,3.44,3.96,3.41
AGGUUUGCUAAUAAUCGCAAG [Fam3.1 aminoacylation ribozyme variant],1.91,0.899,0.949,0.822,0.725,0.753
CUACUUGAAACAAUCGGUUUG [Fam1A.1 aminoacylation ribozyme variant],0.458,0.907,0.77,0.89,0.944,0.938
CCACACGUCGAGCAAUCGGUC [Fam1B.1 aminoacylation ribozyme variant],0.83,1.17,2.02,1.41,1.22,0.959
AUUCCCCUGGUUAUCGAGUGA [Fam2.1 aminoacylation ribozyme variant],82.2,5.07,5.49,9.8,14.5,10.2
AAGUUUGCUUAUAGUAGCAAG [Fam3.1 aminoacylation ribozyme variant],1.56,1.04,1.12,1.08,0.878,1.06
AUUACCAUGGUCAUCGAGUCA [Fam2.1 aminoacylation ribozyme variant],0.683,0.821,0.778,0.823,0.451,0.695
CUACUUCCAACAAUUGGUCUG [Fam1A.1 aminoacylation ribozyme variant],0.55,0.817,0.839,0.776,0.536,0.718
AUUCACCUAGGCCAUCCGGUG [Fam2.2 aminoacylation ribozyme variant],32,4.25,4.6,5.83,5.92,5.26
CCACAUUUCAAGCUAUCGGUC [Fam1B.1 aminoacylation ribozyme variant],1.03,1.4,1.33,1.16,1.03,1.1
